Source: the supplement of paper PMC10567573

B1: EDARADD (parent)
chain: VEKVLRRWVDEEWPKRERGDPSRH

Variants of: B1
Experiment: protein stability index of a GFP-peptide fusion (GPS, HEK-293T) (PSI 1-6); higher = more stable
Settings: c terminus: a fixed tail appended
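Note: lentivirally expressed fusions sorted by FACS into six bins by GFP to DsRed ratio, PSI derived from sequencing read proportions per bin multiplied by bin number.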

Q: For VEKVLRRWVDEEWPKRERGDPQRH, which protein stability index is on record?
A: Its protein stability index is 2.96.

Q: Which protein stability index does the source give for VEKVLRRWVDEEWPKRERGDPMRH here?
A: The protein stability index was 2.17.

Q: Which protein stability index does the source give for VEKVLRRWVDEEWPKRERGDPDRH here?
A: The protein stability index was 3.26.

Q: Which protein stability index does the source give for VEKVLRRWVDEEWPKRERGDPNRH here?
A: The protein stability index was 2.78.

Q: With VEKVLRRWVDEEWPKRERGDPVRH as the variant, how does the protein stability index read?
A: The protein stability index was 2.66.

Q: Which protein stability index does the source give for VEKVLRRWVDEEWPKRERGDPYRH here?
A: Its protein stability index is 2.52.

Q: With VEKVLRRWVDEEWPKRERGDPRRH as the variant, how does the protein stability index read?
A: Its protein stability index is 3.51.

Q: With VEKVLRRWVDEEWPKRERGDPHRH as the variant, how does the protein stability index read?
A: Its protein stability index is 2.55.

Q: With VEKVLRRWVDEEWPKRERGDPFRH as the variant, how does the protein stability index read?
A: The protein stability index was 1.83.

Q: For VEKVLRRWVDEEWPKRERGDPARH, which protein stability index is on record?
A: The protein stability index was 2.48.

Q: With VEKVLRRWVDEEWPKRERGDPKRH as the variant, how does the protein stability index read?
A: The protein stability index was 2.46.

Q: Which protein stability index does the source give for VEKVLRRWVDEEWPKRERGDPCRH here?
A: The protein stability index was 2.2.

Q: Which protein stability index does the source give for VEKVLRRWVDEEWPKRERGDPERH here?
A: Its protein stability index is 3.63.

Q: Which protein stability index does the source give for VEKVLRRWVDEEWPKRERGDPPRH here?
A: Its protein stability index is 2.6.

Q: For VEKVLRRWVDEEWPKRERGDPIRH, which protein stability index is on record?
A: Its protein stability index is 2.52.

Q: With VEKVLRRWVDEEWPKRERGDPWRH as the variant, how does the protein stability index read?
A: The protein stability index was 1.84.

Q: For VEKVLRRWVDEEWPKRERGDPTRH, which protein stability index is on record?
A: The protein stability index was 2.93.

Q: For VEKVLRRWVDEEWPKRERGDPGRH, which protein stability index is on record?
A: Its protein stability index is 2.31.

Q: For VEKVLRRWVDEEWPKRERGDPSHH, which protein stability index is on record?
A: Its protein stability index is 3.38.

Q: Which protein stability index does the source give for VEKVLRRWVDEEWPKRERGDPSYH here?
A: Its protein stability index is 2.87.

Q: For VEKVLRRWVDEEWPKRERGDPSEH, which protein stability index is on record?
A: The protein stability index was 3.71.

Q: For VEKVLRRWVDEEWPKRERGDPSAH, which protein stability index is on record?
A: The protein stability index was 2.83.

Q: For VEKVLRRWVDEEWPKRERGDPSMH, which protein stability index is on record?
A: Its protein stability index is 2.45.

Q: With VEKVLRRWVDEEWPKRERGDPSNH as the variant, how does the protein stability index read?
A: The protein stability index was 2.81.

Q: For VEKVLRRWVDEEWPKRERGDPSCH, which protein stability index is on record?
A: Its protein stability index is 3.

Q: Which protein stability index does the source give for VEKVLRRWVDEEWPKRERGDPSVH here?
A: Its protein stability index is 2.44.

Q: For VEKVLRRWVDEEWPKRERGDPSIH, which protein stability index is on record?
A: Its protein stability index is 3.32.

Q: With VEKVLRRWVDEEWPKRERGDPSPH as the variant, how does the protein stability index read?
A: Its protein stability index is 3.56.

Q: Which protein stability index does the source give for VEKVLRRWVDEEWPKRERGDPSTH here?
A: The protein stability index was 2.58.

Q: Which protein stability index does the source give for VEKVLRRWVDEEWPKRERGDPSSH here?
A: The protein stability index was 3.07.

Q: Which protein stability index does the source give for VEKVLRRWVDEEWPKRERGDPSFH here?
A: The protein stability index was 1.98.

Q: For VEKVLRRWVDEEWPKRERGDPSKH, which protein stability index is on record?
A: The protein stability index was 2.83.

Q: Which protein stability index does the source give for VEKVLRRWVDEEWPKRERGDPSLH here?
A: The protein stability index was 2.66.

Q: With VEKVLRRWVDEEWPKRERGDPSWH as the variant, how does the protein stability index read?
A: The protein stability index was 1.88.

Q: For VEKVLRRWVDEEWPKRERGDPSDH, which protein stability index is on record?
A: The protein stability index was 3.05.

Q: With VEKVLRRWVDEEWPKRERGDPSGH as the variant, how does the protein stability index read?
A: Its protein stability index is 2.59.

Q: Which protein stability index does the source give for VEKVLRRWVDEEWPKRERGDPSQH here?
A: The protein stability index was 2.96.

Q: With VEKVLRRWVDEEWPKRERGRPSRH as the variant, how does the protein stability index read?
A: The protein stability index was 2.48.

Q: With VEKVLRRWVDEEWPKRERGAPSRH as the variant, how does the protein stability index read?
A: The protein stability index was 3.45.

Q: Which protein stability index does the source give for VEKVLRRWVDEEWPKRERGPPSRH here?
A: Its protein stability index is 2.04.

Q: Which protein stability index does the source give for VEKVLRRWVDEEWPKRERGEPSRH here?
A: Its protein stability index is 2.63.

Q: For VEKVLRRWVDEEWPKRERGCPSRH, which protein stability index is on record?
A: Its protein stability index is 2.31.

Q: Which protein stability index does the source give for VEKVLRRWVDEEWPKRERGHPSRH here?
A: The protein stability index was 2.81.

Q: With VEKVLRRWVDEEWPKRERGGPSRH as the variant, how does the protein stability index read?
A: The protein stability index was 2.81.

Q: For VEKVLRRWVDEEWPKRERGLPSRH, which protein stability index is on record?
A: The protein stability index was 2.5.

Q: For VEKVLRRWVDEEWPKRERGKPSRH, which protein stability index is on record?
A: Its protein stability index is 3.07.

Q: With VEKVLRRWVDEEWPKRERGVPSRH as the variant, how does the protein stability index read?
A: Its protein stability index is 2.71.

Q: With VEKVLRRWVDEEWPKRERGMPSRH as the variant, how does the protein stability index read?
A: Its protein stability index is 2.21.

Q: With VEKVLRRWVDEEWPKRERGSPSRH as the variant, how does the protein stability index read?
A: The protein stability index was 2.68.

Q: For VEKVLRRWVDEEWPKRERGNPSRH, which protein stability index is on record?
A: Its protein stability index is 2.94.

Q: Which protein stability index does the source give for VEKVLRRWVDEEWPKRERGWPSRH here?
A: Its protein stability index is 2.61.

Q: For VEKVLRRWVDEEWPKRERGQPSRH, which protein stability index is on record?
A: The protein stability index was 2.5.

Q: With VEKVLRRWVDEEWPKRERGFPSRH as the variant, how does the protein stability index read?
A: Its protein stability index is 2.35.

Q: With VEKVLRRWVDEEWPKRERGIPSRH as the variant, how does the protein stability index read?
A: The protein stability index was 2.19.

Q: Which protein stability index does the source give for VEKVLRRWVDEEWPKRERGYPSRH here?
A: Its protein stability index is 2.63.

Q: With VEKVLRRWVDEEWPKRERGTPSRH as the variant, how does the protein stability index read?
A: Its protein stability index is 3.07.

Q: Which protein stability index does the source give for VEKVLRRWVDEEWPKRERPDPSRH here?
A: Its protein stability index is 2.89.

Q: For VEKVLRRWVDEEWPKRERSDPSRH, which protein stability index is on record?
A: The protein stability index was 2.8.

Q: For VEKVLRRWVDEEWPKRERVDPSRH, which protein stability index is on record?
A: The protein stability index was 2.11.

Q: For VEKVLRRWVDEEWPKRERTDPSRH, which protein stability index is on record?
A: The protein stability index was 2.55.

Q: With VEKVLRRWVDEEWPKRERYDPSRH as the variant, how does the protein stability index read?
A: Its protein stability index is 2.21.

Q: With VEKVLRRWVDEEWPKRERWDPSRH as the variant, how does the protein stability index read?
A: Its protein stability index is 2.1.

Q: Which protein stability index does the source give for VEKVLRRWVDEEWPKRERQDPSRH here?
A: The protein stability index was 2.73.

Q: For VEKVLRRWVDEEWPKRERRDPSRH, which protein stability index is on record?
A: Its protein stability index is 2.64.

Q: For VEKVLRRWVDEEWPKRERGDCSRH, which protein stability index is on record?
A: The protein stability index was 2.51.

Q: Which protein stability index does the source give for VEKVLRRWVDEEWPKRERGDKSRH here?
A: The protein stability index was 3.46.

Q: Which protein stability index does the source give for VEKVLRRWVDEEWPKRERGDYSRH here?
A: Its protein stability index is 2.34.

Q: Which protein stability index does the source give for VEKVLRRWVDEEWPKRERGDLSRH here?
A: Its protein stability index is 2.5.

Q: For VEKVLRRWVDEEWPKRERGDNSRH, which protein stability index is on record?
A: The protein stability index was 3.21.

Q: For VEKVLRRWVDEEWPKRERGDTSRH, which protein stability index is on record?
A: The protein stability index was 2.68.

Q: With VEKVLRRWVDEEWPKRERGDQSRH as the variant, how does the protein stability index read?
A: Its protein stability index is 3.07.

Q: Which protein stability index does the source give for VEKVLRRWVDEEWPKRERGDSSRH here?
A: Its protein stability index is 3.25.

Q: With VEKVLRRWVDEEWPKRERGDHSRH as the variant, how does the protein stability index read?
A: The protein stability index was 2.52.

Q: For VEKVLRRWVDEEWPKRERGDVSRH, which protein stability index is on record?
A: Its protein stability index is 2.19.

Q: With VEKVLRRWVDEEWPKRERGDFSRH as the variant, how does the protein stability index read?
A: The protein stability index was 2.28.

Q: Which protein stability index does the source give for VEKVLRRWVDEEWPKRERGDWSRH here?
A: Its protein stability index is 1.89.

Q: With VEKVLRRWVDEEWPKRERGDISRH as the variant, how does the protein stability index read?
A: The protein stability index was 2.36.

Q: For VEKVLRRWVDEEWPKRERGDESRH, which protein stability index is on record?
A: The protein stability index was 3.51.

Q: For VEKVLRRWVDEEWPKRERGDDSRH, which protein stability index is on record?
A: Its protein stability index is 3.57.

Q: With VEKVLRRWVDEEWPKRERGDASRH as the variant, how does the protein stability index read?
A: The protein stability index was 3.34.

Q: With VEKVLRRWVDEEWPKRERGDRSRH as the variant, how does the protein stability index read?
A: Its protein stability index is 2.4.

Q: Which protein stability index does the source give for VEKVLRRWVDEEWPKRERGDMSRH here?
A: The protein stability index was 2.39.

Q: With VEKVLRRWVDEEWPKRERGDGSRH as the variant, how does the protein stability index read?
A: Its protein stability index is 3.02.

Q: With VEKVLRRWVDEEWPKRERGDPSRD as the variant, how does the protein stability index read?
A: Its protein stability index is 3.06.

Q: With VEKVLRRWVDEEWPKRERGDPSRI as the variant, how does the protein stability index read?
A: The protein stability index was 2.3.

Q: For VEKVLRRWVDEEWPKRERGDPSRG, which protein stability index is on record?
A: Its protein stability index is 2.71.

Q: Which protein stability index does the source give for VEKVLRRWVDEEWPKRERGDPSRL here?
A: The protein stability index was 3.12.

Q: With VEKVLRRWVDEEWPKRERGDPSRA as the variant, how does the protein stability index read?
A: The protein stability index was 2.59.

Q: With VEKVLRRWVDEEWPKRERGDPSRC as the variant, how does the protein stability index read?
A: Its protein stability index is 2.13.

Q: For VEKVLRRWVDEEWPKRERGDPSRK, which protein stability index is on record?
A: Its protein stability index is 3.04.

Q: Which protein stability index does the source give for VEKVLRRWVDEEWPKRERGDPSRE here?
A: The protein stability index was 2.48.

Q: For VEKVLRRWVDEEWPKRERGDPSRF, which protein stability index is on record?
A: The protein stability index was 2.61.

Q: With VEKVLRRWVDEEWPKRERGDPSRN as the variant, how does the protein stability index read?
A: Its protein stability index is 2.75.

Q: For VEKVLRRWVDEEWPKRERGDPSRM, which protein stability index is on record?
A: The protein stability index was 3.47.
